For the assay, the target named is full-length Crk-II (SH2-nSH3-cSH3) (UniProt Q64010-1 1-304). Nature of the assay: other fluorescence titration.

No end group written: not given here.

full-length Crk-II (SH2-nSH3-cSH3), sequence (Q64010 whole entry): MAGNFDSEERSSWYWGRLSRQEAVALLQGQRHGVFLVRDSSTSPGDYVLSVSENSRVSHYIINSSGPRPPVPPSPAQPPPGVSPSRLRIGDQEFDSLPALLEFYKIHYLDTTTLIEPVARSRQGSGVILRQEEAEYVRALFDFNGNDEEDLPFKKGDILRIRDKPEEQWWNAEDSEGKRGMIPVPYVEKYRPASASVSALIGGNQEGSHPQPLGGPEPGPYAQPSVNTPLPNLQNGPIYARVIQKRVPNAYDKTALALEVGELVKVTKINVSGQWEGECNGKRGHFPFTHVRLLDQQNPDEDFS

As for HPPPPLPPKRRK(fluorescein)G-NH2 [fluorescein-labeled C3G-derived ligand], the dissociation constant (Kd) amounted to 286 ± 19 nM.

One may read the Kd as the free concentration of one partner at which half of the binding sites on the other are occupied at equilibrium, for simple one-to-one binding. Higher therefore signals a looser complex.

The values are drawn from paper PMC3265570 (Nature structural & molecular biology, 2011).
